In patent publication US20230416363A1 (KADMON, published 2023):

Assays:
[1] = molecular target: T1, hPD-1-Fc (human, UniProt Q15116 25-167); assay: SPR, Exp. 3
T1 construct: domain: IgV domain; also called human PD-1-Fc; not shown: human IgG1 Fc

[2] = molecular target: T2, hPD-1-his (human, UniProt Q15116 25-167); assay: SPR, Exp. 3
T2 construct: domain: IgV domain; monomer in solution; biotin-labelled where captured by streptavidin; also called biotin-hPD-1-his

[3] = molecular target: T1, hPD-1-Fc; assay: ELISA, PD-1-Fc coated
[4] = molecular target: T3, mPD1 (soluble, ELISA of Examples 20 and 24) (mouse, UniProt Q02242 25-167, limits assumed); assay: ELISA, mPD1
T3 construct: also called Biotin-mPD1
T3 sequence (looked up): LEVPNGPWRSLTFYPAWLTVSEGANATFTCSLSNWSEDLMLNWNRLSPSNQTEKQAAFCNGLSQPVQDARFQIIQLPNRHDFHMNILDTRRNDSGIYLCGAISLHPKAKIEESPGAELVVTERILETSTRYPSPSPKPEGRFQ

[5] = molecular target: T4, human PD-1 expressed on cells (human, UniProt Q15116 25-288); assay: flow cytometry, SEB-activated PBMC donor
T4 construct: whole, on cells

[6] = molecular target: T4, human PD-1 expressed on cells; assay: flow cytometry, hPD1-293 cells
[7] = molecular target: T1, hPD-1-Fc; assay: SPR Biacore T200, PD-1-Fc immobilised
[8] = molecular target: T4, human PD-1 expressed on cells; assay: cell-based or functional assay
[9] = molecular target: T5, hPD1 (soluble, ELISA of Example 20) (human, UniProt Q15116 25-167, limits assumed); assay: blocking ELISA, hPD1 to hPDL1
[10] = molecular target: T4, human PD-1 expressed on cells; assay: cell-based or functional assay; remark: listed apart in the source
[11] = molecular target: T1, hPD-1-Fc; assay: blocking ELISA, PD-1 to PD-L2
[12] = molecular target: T2, hPD-1-his; assay: ELISA, PD-1-his on anti-his
[13] = molecular target: T1, hPD-1-Fc; assay: SPR Biacore, hPD1-Fc
[14] = molecular target: T2, hPD-1-his; assay: ELISA, PD-1-his on streptavidin
[15] = molecular target: T4, human PD-1 expressed on cells; assay: flow cytometry, hPD1-293 cells; remark: listed apart in the source
[16] = molecular target: T4, human PD-1 expressed on cells; assay: cell-based or functional assay; remark: listed apart in the source
[17] = molecular target: T4, human PD-1 expressed on cells; assay: flow cytometry, activated PBMC donor two
[18] = molecular target: T1, hPD-1-Fc; assay: SPR, range over experiments
[19] = molecular target: T4, human PD-1 expressed on cells; assay: flow cytometry, hPD-1-293 cells
[20] = molecular target: T4, human PD-1 expressed on cells; assay: cell-based or functional assay; remark: listed apart in the source
[21] = molecular target: T2, hPD-1-his; assay: SPR, Exp. 4
[22] = molecular target: T2, hPD-1-his; assay: ELISA, PD-1-his on anti-his; remark: listed apart in the source
[23] = molecular target: T4, human PD-1 expressed on cells; assay: flow cytometry, activated PBMC donor FA
[24] = molecular target: T4, human PD-1 expressed on cells; assay: flow cytometry, hPD-1-Jurkat cells
[25] = molecular target: T1, hPD-1-Fc; assay: SPR, Exp. 1
[26] = molecular target: T2, hPD-1-his; assay: SPR, Exp. 1
[27] = molecular target: T4, human PD-1 expressed on cells; assay: flow cytometry, hPD1-Jurkat cells
[28] = molecular target: T1, hPD-1-Fc; assay: blocking ELISA, PD-1 to PD-L1
[29] = molecular target: T1, hPD-1-Fc; assay: blocking ELISA, hPD-1 to hPD-L1; set-up: unit not given here
[30] = molecular target: T2, hPD-1-his; assay: SPR Biacore T200, PD-1-his immobilised
[31] = molecular target: T2, hPD-1-his; assay: ELISA, biotin-PD-1-his on streptavidin
[32] = molecular target: T1, hPD-1-Fc; assay: SPR, Exp. 2
[33] = molecular target: T2, hPD-1-his; assay: SPR, Exp. 2
[34] = molecular target: T6, mPD-1-his (mouse, UniProt Q02242 25-167, limits assumed); assay: SPR Biacore
T6 construct: domain: IgV domain
T6 sequence: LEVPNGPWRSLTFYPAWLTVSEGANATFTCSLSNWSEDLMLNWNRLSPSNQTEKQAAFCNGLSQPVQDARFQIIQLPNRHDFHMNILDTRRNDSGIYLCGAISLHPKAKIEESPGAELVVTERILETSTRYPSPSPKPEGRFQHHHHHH

[35] = molecular target: T7, mPD-1-Fc (mouse; human, UniProt Q02242 25-167, limits assumed); assay: SPR Biacore
T7 construct: domain: IgV domain; not shown: human IgG1 Fc
T7 sequence (looked up): T3 sequence (looked up)

[36] = molecular target: T1, hPD-1-Fc; assay: ELISA, hPD-1-Fc coated
[37] = molecular target: T5, hPD1 (soluble, ELISA of Example 20); assay: ELISA, hPD1
[38] = molecular target: T4, human PD-1 expressed on cells; assay: flow cytometry, hPD1-Jurkat cells; remark: listed apart in the source
[39] = molecular target: T4, human PD-1 expressed on cells; assay: flow cytometry, SEB-activated PBMC donor two

T2 sequence (Q15116 other isoform, or with tags, fused parts or gaps limits assumed): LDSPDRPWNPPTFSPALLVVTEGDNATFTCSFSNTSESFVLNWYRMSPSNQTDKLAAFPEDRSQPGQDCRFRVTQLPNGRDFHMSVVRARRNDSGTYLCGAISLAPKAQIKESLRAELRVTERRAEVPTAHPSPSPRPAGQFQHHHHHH
T1 sequence (Q15116 25-167 limits assumed): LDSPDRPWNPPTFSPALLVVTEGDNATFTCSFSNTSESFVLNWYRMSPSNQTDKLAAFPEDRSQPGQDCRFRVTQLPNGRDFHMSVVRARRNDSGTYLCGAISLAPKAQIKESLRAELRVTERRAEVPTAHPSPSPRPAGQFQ
T4 sequence (Q15116 25-288): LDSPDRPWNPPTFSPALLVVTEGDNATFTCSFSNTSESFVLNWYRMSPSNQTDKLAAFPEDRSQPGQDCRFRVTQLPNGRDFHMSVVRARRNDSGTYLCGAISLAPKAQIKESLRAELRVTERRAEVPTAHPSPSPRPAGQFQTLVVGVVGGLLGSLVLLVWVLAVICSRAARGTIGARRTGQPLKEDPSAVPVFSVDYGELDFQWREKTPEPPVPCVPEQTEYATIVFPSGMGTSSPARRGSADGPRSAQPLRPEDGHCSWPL
T5 sequence (Q15116 25-167 limits assumed): as the sequence (Q15116 25-167 limits assumed) above

B1: 38B2 (antibody, V domains shown)
VH: EVQLLESGGGLVQPGGSLRLSCAASGFTFSSYWMSWVRQAPGKGLEWVSAISGSGGSTYYADSVKGRFTISRDNSKNTLYLQMNSLRAEDTAVYYCASSPLQWVDVWGQGTTVTVSS
VL: DIQMTQSPSSLSASVGDRVTITCRASESISSWLAWYQQKPGKAPKLLIYDASSLESGVPSRFSGSGSGTDFTLTISSLQPEDFATYYCQQGDSFPFTFGQGTKLEIK
notes: 24H9 derivative, IgG; also called 780_54; hPD1 Ab (38B2)
With B1 the Kd [1] was < 0.01 nM, the Kd [2] was 0.932 nM and the EC50 [3] was 0.096 nM. For the same binder, the binding result [4] was “no binding”, the “MFI, 5 nM” value [5] was 64.2 MFI and the EC50 [6] was 0.267 nM. The Kd [7] was 0.249 nM, the “EC50, Promega blockade bioassay” value [8] was 0.154 µg/mL and the Fold induction [8] was 6.54 fold. The IC50 [9] was 4.25 nM, the “EC50 averaged from two experiments, Promega blockade bioassay” value [10] was 0.154 µg/mL and the “IC50, Promega blockade bioassay” value [10] was 0.725 nM. For the same binder, the IC50 [11] was 1.93 nM, the “Inhibition, % at 3.7 nM” value [11] was 93.9% and the “Inhibition, % at 100 nM” value [11] was 95.1%. For the same binder, the “OD at 10 nM” value [12] was 0.662 OD, the Kd [13] was 0.147 nM and the koff [13] was 3.26e-05 s⁻¹. For the same binder, the kon [13] was 221000 M⁻¹ s⁻¹, the “OD at 10 nM” value [14] was 1.04 OD and the EC50 [15] was 0.12 nM. The “MFI at 5 nM” value [15] was 118 MFI, the “EC50, Promega blockade bioassay, Exp. 1” value [16] was 0.189 µg/mL and the “EC50, Promega blockade bioassay, Exp. 2” value [16] was 0.135 µg/mL. The “Fold induction at 12 µg/ml, Exp. 1” value [16] was 7.61 fold, the “Fold induction at 12 µg/ml, Exp. 2” value [16] was 8.31 fold and the EC50 [17] was 0.1 nM. The “MFI at 25 nM” value [17] was 16.7 MFI, the Kd [18] was 0.01 to 0.03 nM and the “MFI, 5 nM” value [19] was 297 MFI. The “EC50 (read off the curve)” value [20] was ~0.5 nM, the Kd [21] was 0.205 nM and the EC50 [22] was 0.06 nM. The EC50 [23] was 0.15 nM, the “MFI at 25 nM” value [23] was 16.6 MFI and the “MFI, 5 nM” value [24] was 60.8 MFI. For the same binder, the Kd [25] was < 0.033 nM, the Kd [26] was 0.946 nM and the EC50 [27] was 0.16 nM. The “MFI at 5 nM” value [27] was 91 MFI, the IC50 [28] was 2.37 nM and the “Inhibition % at 50 nM” value [28] was 93.9%. For the same binder, the “Inhibition, % at 5.56 nM” value [28] was 92.7%, the “Inhibition at 50 nM” value [29] was 93.4 and the Kd [30] was 0.318 nM. For the same binder, the EC50 [31] was 0.081 nM, the Kd [32] was < 0.01 nM and the Kd [33] was 0.423 nM. For the same binder, the binding result [34] was “no binding”, the binding result [35] was “no binding” and the “OD at 10 nM” value [36] was 1.05 OD. The EC50 [37] was 0.125 nM, the EC50 [38] was 0.137 nM and the “MFI, 5 nM” value [39] was 55.3 MFI.
